Patent US9950027
Side-chain parts run from the residue outwards. [ ]: non-standard residue; d: D form.

What was measured:
Assay in all cases: cell-based or functional assay
[1] = target: human GLP-1 receptor (human) (UniProt P43220)
[2] = target: human GLP-2 receptor (human) (UniProt O95838)
[3] = target: recombinant human type 2 Formyl peptide receptor (FPR2) (human) (UniProt P25090)
Sequence of recombinant human type 2 Formyl peptide receptor (FPR2) (human) (P25090 whole entry): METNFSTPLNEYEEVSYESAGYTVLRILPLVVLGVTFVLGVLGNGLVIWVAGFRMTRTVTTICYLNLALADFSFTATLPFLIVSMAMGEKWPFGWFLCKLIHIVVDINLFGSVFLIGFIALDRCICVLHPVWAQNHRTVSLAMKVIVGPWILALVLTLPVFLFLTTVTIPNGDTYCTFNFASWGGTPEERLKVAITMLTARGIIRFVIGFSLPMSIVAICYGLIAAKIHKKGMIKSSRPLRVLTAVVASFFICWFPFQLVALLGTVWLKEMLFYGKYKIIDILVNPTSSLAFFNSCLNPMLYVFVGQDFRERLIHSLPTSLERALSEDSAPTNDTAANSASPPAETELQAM

Sequence of human GLP-2 receptor (human) (O95838 whole entry): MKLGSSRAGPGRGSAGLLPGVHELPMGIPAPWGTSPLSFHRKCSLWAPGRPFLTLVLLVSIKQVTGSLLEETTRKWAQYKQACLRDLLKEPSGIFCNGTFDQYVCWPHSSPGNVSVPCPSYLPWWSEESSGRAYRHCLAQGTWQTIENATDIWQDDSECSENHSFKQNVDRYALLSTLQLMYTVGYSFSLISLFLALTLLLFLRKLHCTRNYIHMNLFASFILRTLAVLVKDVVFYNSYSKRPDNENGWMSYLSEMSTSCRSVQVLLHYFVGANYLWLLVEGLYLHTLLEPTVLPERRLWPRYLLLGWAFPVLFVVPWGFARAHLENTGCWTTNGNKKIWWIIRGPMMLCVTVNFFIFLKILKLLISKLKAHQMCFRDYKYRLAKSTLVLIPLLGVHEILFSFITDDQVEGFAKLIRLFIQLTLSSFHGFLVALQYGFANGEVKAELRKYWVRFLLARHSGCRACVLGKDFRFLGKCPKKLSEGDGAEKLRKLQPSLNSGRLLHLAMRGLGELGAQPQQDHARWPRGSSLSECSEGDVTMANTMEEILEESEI
Sequence of human GLP-1 receptor (human) (P43220 24-463): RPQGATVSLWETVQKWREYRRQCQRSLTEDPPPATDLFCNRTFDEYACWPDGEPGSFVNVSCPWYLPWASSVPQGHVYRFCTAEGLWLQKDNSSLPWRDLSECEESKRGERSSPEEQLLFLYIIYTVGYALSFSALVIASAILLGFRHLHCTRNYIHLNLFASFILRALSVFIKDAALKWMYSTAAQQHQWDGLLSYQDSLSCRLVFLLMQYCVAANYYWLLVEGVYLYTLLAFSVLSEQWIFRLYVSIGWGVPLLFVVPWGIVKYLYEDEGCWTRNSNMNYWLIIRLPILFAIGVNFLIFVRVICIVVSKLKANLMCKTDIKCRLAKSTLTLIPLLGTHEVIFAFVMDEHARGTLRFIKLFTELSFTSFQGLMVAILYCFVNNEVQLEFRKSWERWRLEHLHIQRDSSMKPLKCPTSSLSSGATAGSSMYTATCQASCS

Binder | EC50 (nM), cAMP production (HTRF) [1] | Max efficacy in % of control peptide (cAMP production, HTRF) (% of control peptide) [1] | EC50 (nM), cAMP production (HTRF) [2] | Max efficacy in % of control peptide (cAMP production, HTRF) (% of control peptide) [2] | agonist activity, % of the max response of Trp-Lys-Tyr-Met-Val-Met (SEQ ID NO: 114) [3]
Ac-HGEGTFTSDVSSYLEGQAAKEFIAWLVKGRGK([Lys-Lys-Ac])-NH2 [Analogue 2 (Example 4, BAP-modified GLP-1 analogue): …] | 0.04 nM | 102 | – | – | –
HADGSFSDEMNTILDNLAARDFINWLIQTKITDK (N-terminal acetyl; Lys-Lys-Ac attached to the epsilon-amino group of the C-terminal Lys34; C-terminal amide) [Analogue 3 (Example 4, BAP-modified GLP-2 analogue): …] | – | – | 3.4 nM | 101 | –
HGDGSFSDEMNTILDNLAARDFINWLIQTKITDK (N-terminal acetyl; Lys-Lys-Ac attached to the epsilon-amino group of the C-terminal Lys34; C-terminal amide) [Analogue 4 (Example 4, BAP-modified GLP-2 analogue): …] | – | – | 5.9 nM | 102 | –
HADGSFSDEMNTILDNLAARDFINWLIQTKITDK (N-terminal acetyl; D-Ala at position 2; Lys-Lys-Ac attached to the epsilon-amino group of the C-terminal Lys34; C-terminal amide) [Analogue 5 (Example 4, BAP-modified GLP-2 analogue): …] | – | – | 8.9 nM | 95.1 | –
Ac-AMVSEFLKQ[dA]WFIENEEQEYVQTVKKK([Lys-Ac])-NH2 [Analogue 6 (Example 4, BAP-modified AnxA1 N-terminal fragment): …] | – | – | – | – | 33%
